Results as given in paper PMC11234457, “Antitumor Effect of Anti‐c‐Myc Aptamer‐Based PROTAC for Degradation of the c‐Myc Protein”.
Changes are numbered by the printed parent chain.

Assays:
c-Myc [1] = biological target: T1, c-Myc (Homo sapiens, UniProt P01106 16-454); assay: ELISA; ELISA: c-Myc coated on microplate (100 mM NaHCO3 pH 9.6, 4 C overnight), 2% BSA in PBST block, binding buffer (composition not in material), RT 30 min; details: protein: commercial; tags: none (untagged)
c-Myc [2] = biological target: T1, c-Myc; assay: competition ELISA; 200 nM ProMyc, 50 ng c-Myc; ELISA: c-Myc coated on microplate (100 mM NaHCO3 pH 9.6, 4 C overnight), 2% BSA in PBST block, binding buffer (composition not in material), RT 30 min; details: protein: commercial; tags: none (untagged); cloverleaf (predicted)
c-Myc [3] = biological target: T1, c-Myc; assay: ELISA; 200 nM aptamer, 100 ng c-Myc/well; ELISA: c-Myc coated on microplate (100 mM NaHCO3 pH 9.6, 4 C overnight), 2% BSA in PBST block, binding buffer (composition not in material), RT 30 min; details: protein: commercial; tags: none (untagged); label: 5' biotin (ELISA, pull-down); FAM (flow)
c-Myc [4] = biological target: T1, c-Myc; assay: competition ELISA; affinity consistent with ProMyc; ELISA: c-Myc coated on microplate (100 mM NaHCO3 pH 9.6, 4 C overnight), 2% BSA in PBST block, binding buffer (composition not in material), RT 30 min; details: protein: commercial; tags: none (untagged); cloverleaf (predicted)
c-Myc [5] = biological target: T1, c-Myc; assay: ELISA; comparable to MA9; ELISA: c-Myc coated on microplate (100 mM NaHCO3 pH 9.6, 4 C overnight), 2% BSA in PBST block, binding buffer (composition not in material), RT 30 min; details: protein: commercial; tags: none (untagged); label: 5' biotin; FAM; cy3; cloverleaf (predicted)

T1 sequence (P01106 16-454): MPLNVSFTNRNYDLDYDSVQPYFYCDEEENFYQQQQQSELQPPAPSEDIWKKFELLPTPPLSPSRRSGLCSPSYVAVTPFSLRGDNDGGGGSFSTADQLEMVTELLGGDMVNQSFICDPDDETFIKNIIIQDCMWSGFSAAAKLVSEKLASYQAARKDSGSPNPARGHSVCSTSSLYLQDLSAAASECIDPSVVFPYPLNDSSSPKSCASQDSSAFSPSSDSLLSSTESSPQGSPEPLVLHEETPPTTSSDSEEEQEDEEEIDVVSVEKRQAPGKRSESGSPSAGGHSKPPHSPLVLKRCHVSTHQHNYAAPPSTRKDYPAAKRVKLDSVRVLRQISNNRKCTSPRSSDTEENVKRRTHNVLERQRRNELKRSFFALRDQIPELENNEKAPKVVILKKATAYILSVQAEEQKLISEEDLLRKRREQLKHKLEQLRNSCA

B1: MA9C1-mut (structured_DNA)
DNA: CGTTAATTCTGTTCGTTCTCATGGCGAACCCTGTATGACACGTTTGACGGGGAGTAACG
Q: Does B1 bind (c-Myc [1])?
A: Result: no binding

B2: ProMyc (structured_DNA)
DNA: B1 DNA with A6C, A38G, A40G, T44A, T45A, A47T
modifications: 5' NH2-C6 linked to pomalidomide-PEG4
Q: Does B2 bind (c-Myc [2])?
A: Result: binds

B3: MA9 (ssDNA)
DNA: CGTTACTTCTGTTCGTTCTCATGGCGAACCCTGTATGGCGCGTAAGTCGGGGAGTAACGTCTGCCTAGTTCCTTGTCTGATCTCCA
Q: Does B3 bind (c-Myc [3])?
A: Result: binds

B4: ProMyc-VHL (structured_DNA)
DNA: B1 DNA with A6C, A38G, A40G, T44A, T45A, A47T
modifications: 5' NH2-C6 linked to (S,R,S)-AHPC-PEG5
Q: Does B4 bind (c-Myc [4])?
A: Result: binds

B5: MA9C1 (structured_DNA)
DNA: B1 DNA with A6C, A38G, A40G, T44A, T45A, A47T
Q: Does B5 bind (c-Myc [5])?
A: Result: binds
